T1: ParB-Q52A (Myxococcus xanthus DK1622, UniProt Q1CVJ4 1-296, Q52A)
T1 construct: ParB of Myxococcus xanthus DK1622, variant lacking CTPase activity; Closed clamps formed with CTP and parS DNA; also called CTP hydrolysis-deficient ParB variant; source: E. coli Rosetta(DE3)pLysS, purified (as wild-type ParB)
T1 sequence (looked up): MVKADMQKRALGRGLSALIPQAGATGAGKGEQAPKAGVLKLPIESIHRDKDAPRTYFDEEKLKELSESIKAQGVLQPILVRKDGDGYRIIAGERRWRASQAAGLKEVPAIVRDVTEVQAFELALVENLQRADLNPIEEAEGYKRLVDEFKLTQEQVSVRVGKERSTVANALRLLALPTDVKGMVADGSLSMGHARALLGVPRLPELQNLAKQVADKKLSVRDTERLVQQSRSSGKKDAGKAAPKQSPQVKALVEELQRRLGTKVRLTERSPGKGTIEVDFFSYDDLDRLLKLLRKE

T2: ParB-Q52A-R13K (Myxococcus xanthus DK1622, UniProt Q1CVJ4 1-296, Q52A | R13K)
T2 construct: ParB of Myxococcus xanthus DK1622, ParB-Q52A variant lacking the conserved residue R13; also called ParB* R13K; R13K variant; source: E. coli Rosetta(DE3)pLysS, purified (as wild-type ParB)
T2 sequence (looked up): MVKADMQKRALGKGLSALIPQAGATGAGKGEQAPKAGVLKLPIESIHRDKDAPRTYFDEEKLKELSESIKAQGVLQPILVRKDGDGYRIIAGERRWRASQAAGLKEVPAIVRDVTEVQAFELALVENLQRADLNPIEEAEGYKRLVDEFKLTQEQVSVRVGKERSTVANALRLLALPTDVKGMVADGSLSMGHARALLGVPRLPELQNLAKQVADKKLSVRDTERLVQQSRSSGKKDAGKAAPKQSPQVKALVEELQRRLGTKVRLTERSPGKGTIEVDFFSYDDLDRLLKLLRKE

T3: ParB-Q52A-R13A (Myxococcus xanthus DK1622, UniProt Q1CVJ4 1-296, Q52A | R13A)
T3 construct: ParB of Myxococcus xanthus DK1622, ParB-Q52A variant lacking the conserved residue R13; also called ParB* R13A; R13A variant; source: E. coli Rosetta(DE3)pLysS, purified (as wild-type ParB)
T3 sequence (looked up): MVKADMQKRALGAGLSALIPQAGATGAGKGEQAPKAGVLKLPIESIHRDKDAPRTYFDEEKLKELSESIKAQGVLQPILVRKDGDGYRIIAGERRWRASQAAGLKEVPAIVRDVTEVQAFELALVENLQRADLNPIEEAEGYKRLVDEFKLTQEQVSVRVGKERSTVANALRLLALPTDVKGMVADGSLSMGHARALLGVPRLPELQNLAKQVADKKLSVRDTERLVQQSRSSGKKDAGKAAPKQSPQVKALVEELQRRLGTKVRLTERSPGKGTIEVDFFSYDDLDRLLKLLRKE

T4: ParB (wild type) (Myxococcus xanthus DK1622, UniProt Q1CVJ4 1-296)
T4 construct: ParB of Myxococcus xanthus DK1622, translation product of ORF MXAN_7476; In the BLI assays loaded as a closed clamp on parS-containing DNA with CTPγS; also called M. xanthus ParB; wild-type ParB; source: E. coli Rosetta(DE3)pLysS, purified (HisTrap HP, Ulp1 cleavage, HiTrap SP HP)
T4 sequence (looked up): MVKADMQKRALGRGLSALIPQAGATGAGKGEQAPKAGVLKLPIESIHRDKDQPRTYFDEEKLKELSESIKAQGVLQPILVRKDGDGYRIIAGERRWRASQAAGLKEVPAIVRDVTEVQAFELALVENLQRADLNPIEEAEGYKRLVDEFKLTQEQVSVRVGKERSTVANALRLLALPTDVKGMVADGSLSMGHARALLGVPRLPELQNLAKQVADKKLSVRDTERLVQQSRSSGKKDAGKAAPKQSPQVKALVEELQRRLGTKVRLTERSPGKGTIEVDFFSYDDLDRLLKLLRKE


Tests used:
Settings in all cases: both partners purified
ParB-Q52A = target: T1, ParB-Q52A; assay: BLI; ParB-Q52A (10 µM) loaded on closed parS DNA on the biosensor; ParA variants (5 µM) in solution with ATP (1 mM) and 500 mM KCl
ParB-Q52A-R13K = target: T2, ParB-Q52A-R13K; assay: BLI; ParB-Q52A variants loaded on closed parS DNA on the biosensor with CTP; ParA-R238E (5 µM) in solution with ATP and CTP (1 mM each)
ParB-Q52A-R13A = target: T3, ParB-Q52A-R13A; assay: as above
ParB (wild type) = target: T4, ParB (wild type); assay: BLI; double-biotinylated 234-bp parS DNA on streptavidin biosensor, loaded with ParB or its derivatives (10 µM) and 1 mM CTPγS; ParA-R238E variants in solution with 1 mM ATP; 25 mM HEPES/KOH pH 7.6, 100 mM KCl, 10 mM MgSO4, 1 mM DTT; apparent KD

Binder	binding result (ParB-Q52A)	binding result (ParB-Q52A-R13K)	binding result (ParB-Q52A-R13A)	Kd (ParB (wild type))
ParA-Y81L (natural protein, Myxococcus xanthus DK1622, UniProt Q1CVJ3 1-283, looked up, ParA of Myxococcus xanthus DK1622 with an exchange in the helix H4/H6/H7 region; also called Y81L variant; source: E. coli Rosetta(DE3)pLysS, purified (as His6-ParA)) MHCITRGALAYGRGERGWATVGRIICISNQKGGVGKTTTAINLAASLASAERRTLLVDMDPQGNAGSGLGIKQDNITGTILEALLNDRPIQELLHPTELRYLQVVPATPDLTGAEVELVNQDNREFRLRDALRPLAAEYDYIIIDCPPSLGLLTLNALAAADSVLIPLQCEYYALEGLSQLTHTIDLVKQGLNPDLKMEGILLTMFDSRANIAHQVVEEVRGYFKKQVFEVIVPRNVRLSECPSFGKPIILYDIKSKGCESYLALGRELMKRDTPKSPRRRVA	binds	–	–	–
ParA-R238E (natural protein, Myxococcus xanthus DK1622, UniProt Q1CVJ3 1-283, looked up, ParA of Myxococcus xanthus DK1622, translation product of ORF MXAN_7477; Purified as His6-ParA; no tag cleavage step is described; also called His6-ParA-R238E; source: E. coli Rosetta(DE3)pLysS, purified (HisTrap HP, HiTrap Q HP)) MHCITRGALAYGRGERGWATVGRIICISNQKGGVGKTTTAINLAASLASAERRTLLVDMDPQGNAGSGLGIKQDNITGTIYEALLNDRPIQELLHPTELRYLQVVPATPDLTGAEVELVNQDNREFRLRDALRPLAAEYDYIIIDCPPSLGLLTLNALAAADSVLIPLQCEYYALEGLSQLTHTIDLVKQGLNPDLKMEGILLTMFDSRANIAHQVVEEVRGYFKKQVFEVIVPRNVELSECPSFGKPIILYDIKSKGCESYLALGRELMKRDTPKSPRRRVA	–	binds	binds	~1000 nM

More lines, now with the values ahead:

binding result (ParB-Q52A)	binding result (ParB-Q52A-R13K)	binding result (ParB-Q52A-R13A)	Kd (ParB (wild type))	Binder
binds	–	–	–	ParA-D110R/E117R (natural protein, Myxococcus xanthus DK1622, UniProt Q1CVJ3 1-283, looked up, ParA of Myxococcus xanthus DK1622 with two exchanges in the helix H4/H6/H7 region; source: E. coli Rosetta(DE3)pLysS, purified (as His6-ParA)) MHCITRGALAYGRGERGWATVGRIICISNQKGGVGKTTTAINLAASLASAERRTLLVDMDPQGNAGSGLGIKQDNITGTIYEALLNDRPIQELLHPTELRYLQVVPATPRLTGAEVRLVNQDNREFRLRDALRPLAAEYDYIIIDCPPSLGLLTLNALAAADSVLIPLQCEYYALEGLSQLTHTIDLVKQGLNPDLKMEGILLTMFDSRANIAHQVVEEVRGYFKKQVFEVIVPRNVRLSECPSFGKPIILYDIKSKGCESYLALGRELMKRDTPKSPRRRVA
binds	–	–	–	ParA-E117R (natural protein, Myxococcus xanthus DK1622, UniProt Q1CVJ3 1-283, looked up, ParA of Myxococcus xanthus DK1622 with an exchange in the helix H4/H6/H7 region; source: E. coli Rosetta(DE3)pLysS, purified (as His6-ParA)) MHCITRGALAYGRGERGWATVGRIICISNQKGGVGKTTTAINLAASLASAERRTLLVDMDPQGNAGSGLGIKQDNITGTIYEALLNDRPIQELLHPTELRYLQVVPATPDLTGAEVRLVNQDNREFRLRDALRPLAAEYDYIIIDCPPSLGLLTLNALAAADSVLIPLQCEYYALEGLSQLTHTIDLVKQGLNPDLKMEGILLTMFDSRANIAHQVVEEVRGYFKKQVFEVIVPRNVRLSECPSFGKPIILYDIKSKGCESYLALGRELMKRDTPKSPRRRVA

— publication PMC12462528, “Molecular basis of ParA ATPase activation by the CTPase ParB during bacterial chromosome segregation” (Nature Communications, 2025)
